Test results: article doi:10.1101/2025.01.10.632409

Target: TatC from Pisum sativum (thylakoidal) (Pisum sativum (endogenous in pea thylakoids))
Experiment: native gel or EMSA

TatC from Pisum sativum (thylakoidal) (natural protein)
stoichiometry N: 3
